Data taken from US20160137728A1 (ROCHE DIAGNOSTICS OPERATIONS, published 2016).
Ends that are not written are not given here.

How the values were obtained:
[1] = biological target: T1, human insulin-like growth factor-1 (mature, recombinant native IGF-1, Peprotech Cat.#100-11) (human, UniProt P05019 49-118); assay: SPR (BIAcore T200), 25 C, antibody captured, antigen in solution
T1 construct: In SPR it was the analyte in solution; also called native recombinant IGF-1; human IGF-1
Protocol: (§1) The BIAcore T200 System was driven under the control software V1.1.1. Polyclonal rabbit IgG antibody <IgGFCγM>R (Jackson ImmunoResearch Laboratories Inc.) was immobilized at 30 μg/ml in 10 mM sodium acetate buffer (pH 4.5) at 6500 RU on the flow cells 1, 2, 3, and 4, respectively, via EDC/NHS chemistry according to the manufacturer's instructions. Finally, the sensor surface was blocked with a 1 M ethanolamine solution. The complete experiment was performed at 25° C.
(§2) The clone culture supernatants containing the respective antibodies at approx. 40 nM were captured for 2 min at a flow rate of 5 μl/min on the <IgGFCγM>R surface. As analytes in solution the recombinant native IGF-1 (Peprotech Inc. Cat.#100-11), recombinant native IGF-2 (Peprotech Inc. Cat.#100-12), Thermus thermophilus SlyD-IGF-1(74-90), recombinant wild-type Thermus thermophilus SlyD, recombinant Thermus thermophilus SlyD-ΔIF, recombinant wild-type Thermococcus gammadurans SlyD, recombinant Thermococcus gammadurans SlyD-IGF-2 (53-65) fusion polypeptides were used. Thermus thermophilus SlyD-ΔIF is solely the FKBP domain of Thermus thermophilus SlyD lacking the IF domain. Thermococcus gammadurans SlyD-IGF-2(53-65) was used to counterscreen and investigate the specificity for the IGF-1 hairpin in contrast to the IGF-2 hairpin insertion. The respective analytes were injected at different concentration steps from 90 nM, 30 nM, 10 nM, 3.3 nM, 1.1 nM and 0 nM. The association phase was monitored for 3 min. at a flow rate of 100 μl/min. The dissociation was monitored for 10 min. at a flow rate of 100 μl/min. The system was regenerated using a 10 mM glycine buffer (pH 1.7). Kinetics were evaluated using the BIAcore Evaluation Software.

[2] = biological target: T1, human insulin-like growth factor-1 …; assay: ELISA, clone culture supernatant
SEQ ID NO 45 = biological target: T2, SEQ ID NO 45 (human, also: covalently linked to cellulose); assay: CelluSpots peptide array, chemiluminescence
T2 construct: Spot on the CelluSpots peptide array; also called F-G-N-K-P-T-G-Y-G-S-S-S-R-R-A
T2 peptide: FGNKPTGYGSSSRRA
Protocol: (§3) Each peptide synthesized was shifted by one amino acid, i.e. it had 14 amino acids overlap with the previous and the following peptide, respectively. For preparation of the peptide arrays the Intavis CelluSpots™ technology was employed. In this approach, peptides are synthesized with an automated synthesizer (Intavis MultiPep RS) on modified cellulose disks which are dissolved after synthesis. The solutions of individual peptides covalently linked to macromolecular cellulose are then spotted onto coated microscope slides. The CelluSpots™ synthesis was carried out stepwise utilizing 9-fluorenylmethoxycarbonyl (Fmoc) chemistry on amino-modified cellulose disks in a 384-well synthesis plate. In each coupling cycle, the corresponding amino acids were activated with a solution of DIC/HOBt in DMF. Between coupling steps un-reacted amino groups were capped with a mixture of acetic anhydride, diisopropylethyl amine and 1-hydroxybenzotriazole. Upon completion of the synthesis, the cellulose disks were transferred to a 96-well plate and treated with a mixture of trifluoroacetic acid (TFA), dichloromethane, triisoproylsilane (TIS) and water for side chain deprotection. After removal of the cleavage solution, the cellulose bound peptides are dissolved with a mixture of TFA, TFMSA, TIS and water, precipitated with diisopropyl ether and re-suspended in DMSO. The peptide solutions were subsequently spotted onto Intavis CelluSpots™ slides using an Intavis slide spotting robot.
(§4) For epitope analysis, the slides prepared as described above were washed with ethanol and then with Tris-buffered saline (TBS; 50 mM Tris, 137 mM NaCl, 2.7 mM KCl, pH 8) before blocking for 16 h at 4° C. with 5 mL 10× Western Blocking Reagent (Roche Applied Science), 2.5 g sucrose in TBS, 0.1% Tween 20. The slide was washed with TBS and 0.1% Tween 20 and incubated afterward with 1 µg/mL of the corresponding IGF1 antibodies in TBS and 0.1% Tween 20 at ambient temperature for 2 h and subsequently washed with TBS+0.1% Tween 20. For detection, the slide was incubated with anti-rabbit/anti-mouse secondary HRP-antibody (1:20000 in TBS-T) followed by incubation with chemiluminescence substrate luminol and visualized with a Lumilmager (Roche Applied Science). ELISA-positive SPOTs were quantified and through assignment of the corresponding peptide sequences the antibody binding epitopes were identified.

SEQ ID NO 46 = biological target: T3, SEQ ID NO 46 (human, also: covalently linked to cellulose); assay: CelluSpots peptide array, chemiluminescence
T3 construct: Spot on the CelluSpots peptide array; also called G-N-K-P-T-G-Y-G-S-S-S-R-R-A-P
T3 peptide: GNKPTGYGSSSRRAP
Protocol: as §3, §4

SEQ ID NO 49 = biological target: T4, SEQ ID NO 49 (human, also: covalently linked to cellulose); assay: CelluSpots peptide array, chemiluminescence
T4 construct: Spot on the CelluSpots peptide array; also called P-T-G-Y-G-S-S-S-R-R-A-P-Q-T-G
T4 peptide: PTGYGSSSRRAPQTG
Protocol: as §3, §4

SEQ ID NO 48 = biological target: T5, SEQ ID NO 48 (human, also: covalently linked to cellulose); assay: CelluSpots peptide array, chemiluminescence
T5 construct: Spot on the CelluSpots peptide array; also called K-P-T-G-Y-G-S-S-S-R-R-A-P-Q-T
T5 peptide: KPTGYGSSSRRAPQT
Protocol: as §3, §4

SEQ ID NO 43 = biological target: T6, SEQ ID NO 43 (human, also: covalently linked to cellulose); assay: CelluSpots peptide array, chemiluminescence
T6 construct: Spot on the CelluSpots peptide array; also called F-Y-F-G-N-K-P-T-G-Y-G-S-S-S-R
T6 peptide: FYFGNKPTGYGSSSR
Protocol: as §3, §4

SEQ ID NO 47 = biological target: T7, SEQ ID NO 47 (human, also: covalently linked to cellulose); assay: CelluSpots peptide array, chemiluminescence
T7 construct: Spot on the CelluSpots peptide array; also called N-K-P-T-G-Y-G-S-S-S-R-R-A-P-Q
T7 peptide: NKPTGYGSSSRRAPQ
Protocol: as §3, §4

SEQ ID NO 50 = biological target: T8, SEQ ID NO 50 (human, also: covalently linked to cellulose); assay: CelluSpots peptide array, chemiluminescence
T8 construct: Spot on the CelluSpots peptide array; also called T-G-Y-G-S-S-S-R-R-A-P-Q-T-G-G
T8 peptide: TGYGSSSRRAPQTGG
Protocol: as §3, §4

SEQ ID NO 44 = biological target: T9, SEQ ID NO 44 (human, also: covalently linked to cellulose); assay: CelluSpots peptide array, chemiluminescence
T9 construct: Spot on the CelluSpots peptide array; also called Y-F-G-N-K-P-T-G-Y-G-S-S-S-R-R
T9 peptide: YFGNKPTGYGSSSRR
Protocol: as §3, §4

[3] = biological target: T10, Thermus thermophilus wild type SlyD polypeptide (Thermus thermophilus); assay: SPR (BIAcore T200), 25 C, antibody captured, antigen in solution
T10 construct: Used as negative control; also called wild-type Thermus thermophilus SlyD; Thermus thermophilus-SlyD
T10 chain: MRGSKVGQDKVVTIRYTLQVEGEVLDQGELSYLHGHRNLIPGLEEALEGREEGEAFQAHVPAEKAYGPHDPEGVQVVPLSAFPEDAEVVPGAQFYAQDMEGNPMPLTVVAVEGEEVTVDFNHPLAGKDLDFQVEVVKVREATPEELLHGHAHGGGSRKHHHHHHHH
Protocol: as §1, §2

[4] = biological target: T11, recombinant native IGF-2 (Peprotech Inc. Cat.#100-12) (human, UniProt P01344 25-91); assay: as above
T11 construct: The sentence on the bought protein names no species; also called insulin-like growth factor-2
Protocol: as §1, §2

[5] = biological target: T12, Thermococcus gammatolerans wild-type SlyD polypeptide (Thermococcus gammatolerans); assay: as above
T12 construct: also called wild-type Thermococcus gammadurans SlyD; native SlyD from Thermococcus gammatolerans
T12 chain: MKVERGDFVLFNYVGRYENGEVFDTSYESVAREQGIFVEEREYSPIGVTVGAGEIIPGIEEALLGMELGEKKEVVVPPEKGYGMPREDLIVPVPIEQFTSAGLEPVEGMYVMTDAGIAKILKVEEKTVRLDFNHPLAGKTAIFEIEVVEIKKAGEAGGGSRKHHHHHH
Protocol: as §1, §2

[6] = biological target: T13, Thermococcus gammatolerans SlyD-IGF-2(53-65) fusion polypeptide; assay: as above
T13 construct: Human IGF-2 amino acids 53-65 inserted into the Thermococcus gammatolerans SlyD scaffold, with GS spacer and hexahistidine tag; also called Thermococcus gammadurans SlyD-IGF-2 (53-65)
T13 chain: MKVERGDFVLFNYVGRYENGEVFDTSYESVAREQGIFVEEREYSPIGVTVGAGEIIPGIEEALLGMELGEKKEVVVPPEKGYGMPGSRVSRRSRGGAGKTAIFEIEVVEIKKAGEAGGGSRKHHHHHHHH
Protocol: as §1, §2

[7] = biological target: T10, Thermus thermophilus wild type SlyD …; assay: ELISA, clone culture supernatant

B1: MAb<h-IGF-1>M-10.07.09 (antibody, V domains shown)
VH: QVQLQQSGAELVRPGSSVKISCKASGYAFSSYWMNWVKQRPGQGLEWIGQIYPGDGDTNHNGKFKGKATLTADKSSSTVYMQLSSLTSEDSAVYFCARSGDYYGKDYWGQGTTLTVSS
VL: DIVLTQTPPSLPVNMGQKATISYKATKSLLNTDGYTYMHWNQQKPGQPPKLLIYLVSNRESGVPDRFSGSGSGTDFTLNINTVEEEDAATYYCHHSNELPHTFGAGTKLEIK
notes: Mouse monoclonal antibody from a hybridoma, raised with Thermus thermophilus SlyD-IGF-1(74-90); In SPR it was captured from clone culture supernatant through anti-mouse IgG Fc; also called MAb 10.07.09; M-10.7.9
B1 gave a Kd [1] of 1.6 nM, a koff [1] of 0.0015 s⁻¹ and a kon [1] of 920000 M⁻¹ s⁻¹. The t1/2-diss [1] was 0.133 h and the “reactivity [mE]” value [2] was 2110 mE.

B2: MAb<h-IGF-1>M-11.11.17 (antibody, V domains shown)
VH: QVQLQQSGAELVRPGSSVKISCKASGYAFSNLWMNWVKQRPGQGLEWIGQIYPGDGDTNYYGDFKGKATLTADSSSSTAYMQLSRLTSEDSAVYFCARIGYYGMDYWGQGTSVTVSS
VL: DVVLTQTPLSLPVNIGDEASISCKSTKSLLSSDGLTYLDWYLQKPGQSPQVLIYLVSNRFSGVPDRFSGSGSGTDFTLKISRVEAEDLGVYYCFQSNYLPTFGAGTKLELK
notes: Mouse monoclonal IgG from a hybridoma, raised with Thermus thermophilus SlyD-IGF-1(74-90); also called MAb 11.11.17; mAb<IGF1>M-11.11.17
B2: binds (SEQ ID NO 45); binds (SEQ ID NO 46); binds (SEQ ID NO 49). B2: binds (SEQ ID NO 48); binds (SEQ ID NO 43); binds (SEQ ID NO 47). B2: binds (SEQ ID NO 50); binds (SEQ ID NO 44); no binding (tested: 90 nM) [3]. For the same binder, the Kd [1] was 0.01 nM, the koff [1] was 2.1e-05 s⁻¹ and the kon [1] was 2e+06 M⁻¹ s⁻¹. The t1/2-diss [1] was 9.33 h, the binding result [4] was “no binding (tested: 90 nM)” and the binding result [5] was “no binding (tested: 90 nM)”. The binding result [6] was “no binding (tested: 90 nM)”, the “reactivity [mE]” value [7] was 32 mE and the “reactivity [mE]” value [2] was 2430 mE.
